From IntAct's records for PubMed 23918937

B1: Protein maternal effect lethal 26 (Caenorhabditis elegans), Q94420 (parent)
chain: MEPRIDGGVFIGGIGNSGNEMCSNGVPALGVSSQTEIKVEKVQHTWTVKNFSHCYQEYLENFVYLQRGDEQLTWSIKIYPKGNGENNKDFVFLCLNRVINNNVKAGKIGFKSQFKLRTAENKDIEMRIHPNPSHSDYVSYIKRDVLFPQIMPRDMIIVNVEIDVAVETITTTNEPIQFEPTNSEQQLIEDYQRLFSQELLCDFAINVNGKIIRAHKAVLAARSPVFNAMLTHQDTDEAKSSMMYINDMDYDVIYEMVYYIYCGRCNKDITDMATALLIAADKYRLEELKSHCEKYLVENINIENACSLLIIGDLYSAPKLRKRAVTYILARPKNVTGTPGWEDILKGHPNLITDIFSQIDRQSSTGATSSVSNLPGVPMDIPGITGNIVPPPSGL
partner: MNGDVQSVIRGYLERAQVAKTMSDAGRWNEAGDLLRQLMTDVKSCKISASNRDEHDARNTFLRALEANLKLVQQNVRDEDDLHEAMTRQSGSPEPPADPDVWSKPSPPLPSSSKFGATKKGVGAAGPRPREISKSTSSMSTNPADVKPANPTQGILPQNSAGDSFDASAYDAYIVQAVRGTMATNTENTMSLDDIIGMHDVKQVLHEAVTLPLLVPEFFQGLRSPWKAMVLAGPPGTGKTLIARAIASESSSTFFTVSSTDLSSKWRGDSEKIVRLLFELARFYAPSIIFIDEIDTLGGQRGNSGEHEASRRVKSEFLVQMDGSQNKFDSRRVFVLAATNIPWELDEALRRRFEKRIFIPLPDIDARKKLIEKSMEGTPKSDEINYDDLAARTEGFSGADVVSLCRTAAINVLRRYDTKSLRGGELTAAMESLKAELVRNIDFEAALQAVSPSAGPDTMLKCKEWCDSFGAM
B2: Meiotic spindle formation protein mei-1 (Caenorhabditis elegans), P34808 (parent)
chain: B1 partner
partner: B1 chain
B3: Protein maternal effect lethal 26 (Caenorhabditis elegans), Q94420 (parent)
chain: B1 chain

Variants of: B1
Conditions: with ktna1_caeel mei-1, P34808

Variant	effect of a mutation on the interaction
C94Y	disrupting interaction strength

Variants of: B2
Conditions: with mel26_caeel mel-26, Q94420

Variant	effect of a mutation on the interaction
S92A	disrupting interaction strength

Variants of: B3
Conditions: with pp4r1_caeel ppfr-1, G5ECH5
Sequence of pp4r1_caeel ppfr-1, G5ECH5 (G5ECH5 whole entry): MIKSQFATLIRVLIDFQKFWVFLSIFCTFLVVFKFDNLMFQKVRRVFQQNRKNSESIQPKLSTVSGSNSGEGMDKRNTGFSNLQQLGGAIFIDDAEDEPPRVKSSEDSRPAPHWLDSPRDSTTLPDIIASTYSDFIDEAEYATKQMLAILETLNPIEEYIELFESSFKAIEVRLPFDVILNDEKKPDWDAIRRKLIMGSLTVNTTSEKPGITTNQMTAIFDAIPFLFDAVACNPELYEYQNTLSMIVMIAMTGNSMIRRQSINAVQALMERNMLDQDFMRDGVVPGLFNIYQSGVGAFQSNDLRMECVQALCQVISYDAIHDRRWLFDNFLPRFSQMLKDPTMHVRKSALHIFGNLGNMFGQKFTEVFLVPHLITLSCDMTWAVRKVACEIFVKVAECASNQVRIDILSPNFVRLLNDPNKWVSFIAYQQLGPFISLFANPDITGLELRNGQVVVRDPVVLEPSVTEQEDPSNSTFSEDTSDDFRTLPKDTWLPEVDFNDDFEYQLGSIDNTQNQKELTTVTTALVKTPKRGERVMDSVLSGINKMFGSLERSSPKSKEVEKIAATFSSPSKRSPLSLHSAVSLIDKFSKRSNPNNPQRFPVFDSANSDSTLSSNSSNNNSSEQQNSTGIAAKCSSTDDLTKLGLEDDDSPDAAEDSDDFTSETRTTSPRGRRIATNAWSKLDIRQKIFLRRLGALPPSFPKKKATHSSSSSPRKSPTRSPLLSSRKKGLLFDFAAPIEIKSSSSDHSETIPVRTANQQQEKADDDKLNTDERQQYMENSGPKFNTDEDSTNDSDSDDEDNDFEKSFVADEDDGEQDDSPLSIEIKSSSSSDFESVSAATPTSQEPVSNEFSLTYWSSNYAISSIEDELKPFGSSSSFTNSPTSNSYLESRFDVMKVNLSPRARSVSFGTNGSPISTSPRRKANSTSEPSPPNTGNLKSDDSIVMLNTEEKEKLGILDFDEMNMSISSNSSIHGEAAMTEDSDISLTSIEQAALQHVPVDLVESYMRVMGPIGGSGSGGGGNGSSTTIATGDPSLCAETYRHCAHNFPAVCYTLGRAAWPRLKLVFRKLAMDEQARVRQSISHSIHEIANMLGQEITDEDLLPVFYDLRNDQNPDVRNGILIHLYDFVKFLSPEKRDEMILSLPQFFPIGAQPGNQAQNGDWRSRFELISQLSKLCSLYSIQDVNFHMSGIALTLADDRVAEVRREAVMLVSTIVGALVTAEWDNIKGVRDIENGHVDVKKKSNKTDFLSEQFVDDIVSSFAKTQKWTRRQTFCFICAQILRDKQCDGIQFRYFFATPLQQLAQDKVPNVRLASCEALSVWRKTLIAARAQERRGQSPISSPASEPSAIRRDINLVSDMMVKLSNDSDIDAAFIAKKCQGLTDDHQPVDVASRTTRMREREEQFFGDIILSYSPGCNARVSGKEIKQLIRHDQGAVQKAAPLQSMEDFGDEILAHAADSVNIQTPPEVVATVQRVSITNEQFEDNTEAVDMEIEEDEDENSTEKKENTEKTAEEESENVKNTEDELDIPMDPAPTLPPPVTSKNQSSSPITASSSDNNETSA

Variant	effect of a mutation on the interaction
C94Y	disrupting interaction strength
